Data published in the Human Domainome abundance scans (Beltran et al. 2025).

B1: Chromodomain-helicase-DNA-binding protein 5, residues 338 to 390; numbered along this chain, Q8TDI0 (parent)
chain: YETDHQDYCEVCQQGGEIILCDTCPRAYHLVCLDPELEKAPEGKWSCPHCEKE
B2: Membrane-associated guanylate kinase, WW and PDZ domain-containing protein 1, residues 352 to 401; numbered along this chain, Q96QZ7 (parent)
chain: TEELDSELELPAGWEKIEDPVYGIYYVDHINRKTQYENPVLEAKRKKQLE

Variants of: B1
Experiment: abundance fitness (aPCA) (normalised: wild type 0, dead -1); higher = more abundant; growth selection in yeast, the domain comes from the species named
Details: Homo sapiens

Abundance fitness of substitutions, site by site:
C50: E 0.025, F -0.654, G -0.55, H 0.231, K -0.405, L -0.575, M -1.01, N -0.498, P -0.499, Q -0.365, R -0.71, S -0.416, T -0.409, W -0.718, Y -0.507
E51: A -0.12, C -0.123, D -0.114, G -0.095, H -0.367, I -0.387, K 0.031, L -0.105, M -0.401, N 0.086, P -0.367, Q -0.005, R -0.396, S -0.365, T 0.088, V -0.209, W -0.25, Y -0.207
K52: A -0.182, C -0.381, D -0.038, E -0.288, F -0.248, G 0.028, H 0.223, I -1.1, L -0.249, M 0.083, N -0.378, P -0.5, Q -0.482, R -0.109, S -0.115, T 0.473, V -0.324, W -0.082
E53: A -0.246, C 0.222, D 0.016, G 0.086, K -0.173, L 0.022, R -0.341, S -0.548, V -0.29, W -0.526, Y -0.219

Variants of: B2
Experiment: as above
Details: Homo sapiens

Abundance fitness of substitutions, site by site:
T1: A -0.474, C -0.35, E 0.069, G -0.118, I -0.379, L -0.128, M -0.074, R 0.104, S 0.004, V -0.098, W -0.351, Y -0.155
E2: A -0.185, C 0.319, D -0.314, G -0.086, H -0.523, K -0.214, L -0.35, M -0.265, N 0.372, P -0.266, Q -0.145, R -0.095, S -0.191, T 0.129, V -0.02, W 0.113, Y -0.403
E3: A -0.425, P -0.744, Q -0.226
L4: A -0.101, C -0.593, D -0.682, E -0.239, F -0.051, G -0.102, H 0.202, I 0.349, K 0.019, N -0.333, Q -0.067, R 0.103, S -0.037, T -0.021, V -0.064, W -0.237, Y -0.444
D5: A 0.047, C 0.032, F -0.006, H -0.192, I 0, K 0.086, M -0.421, P 0.023, Q -0.128, T 0.059, V 0.001, W -0.303
S6: A -0.033, C -0.447, D -0.141, E -0.183, F -0.231, G -0.041, H -0.203, I -0.184, K -0.148, L -0.073, M -0.179, N -0.171, P -0.358, Q -0.046, R 0.103, T 0.142, V 0.062, W -0.44
E7: A 0.056, D -0.039, F -0.236, G 0.05, H -0.217, I -0.314, K 0.111, L -0.057, M -0.046, N -0.228, P -0.217, Q -0.404, R -0.037, S -0.153, T 0.053, V 0.03, W -0.181, Y -0.399
L8: A -0.042, D -0.505, E -0.2, F -0.091, G -0.15, H -0.15, I -0.361, K 0.095, M -0.023, N -0.561, P -0.248, Q -0.016, S -0.22, T -0.105, V -0.266, W -0.12, Y -0.103
E9: A 0.105, C -0.149, D -0.017, F -0.441, H -0.095, I -0.312, K -0.078, L -0.223, M -0.079, Q -0.137, R -0.179, S -0.103, T -0.102, V -0.126, W -0.497
L10: A -0.322, C -0.37, D -0.705, E -0.654, F -0.345, G -0.574, H -0.751, I -0.148, K -0.668, M -0.286, N -0.574, P -0.385, Q -0.296, R -0.626, S -0.382, T -0.608, V -0.221, W -0.553, Y -0.571
P11: A -0.367, C -0.249, D -0.382, E -0.377, F -0.515, G -0.268, H -0.554, I -0.424, K -0.153, L -0.35, M -0.185, N -0.728, Q -0.38, R -0.494, S -0.417, T -0.194, V -0.671, W -0.519
A12: C 0.12, D -0.09, E 0.129, F 0.107, G -0.073, H 0.07, I 0.02, K -0.113, L -0.003, M -0.594, P -0.098, Q -0.237, R 0.016, S -0.038, T -0.145, V 0.019, W -0.104, Y -0.38
G13: A -0.458, C -0.339, D -0.525, E -0.425, H -0.54, I -0.63, K -0.368, M -0.448, P -0.41, Q -0.282, R -0.59, T -0.898, V -0.703, W -0.428, Y -0.183
W14: A -0.686, C -0.324, D -0.539, E -0.416, F -0.458, G -0.475, H -0.592, I 0.071, K -0.45, L -0.897, N 0.02, P -0.598, Q -0.631, R -0.438, S -0.46, T -0.254, V -0.5, Y -0.775
E15: A -0.341, C -0.794, F -0.764, H -0.393, I -0.733, K -0.328, L -0.55, M -0.262, N -0.449, Q -0.229, R -0.38, T -0.32, W -0.856, Y -0.46
K16: A -0.474, C -0.245, D -0.756, E -0.327, F -0.688, G -0.561, H -1.03, I -0.134, L -0.447, M -0.206, P -1.11, Q -0.2, S -0.445, T -0.49, V -0.292, W -0.802, Y -0.902
I17: A -0.227, C -0.252, D -0.637, E -0.408, F -0.258, G -0.602, H -0.241, L -0.065, M -0.041, N -0.604, P -0.836, Q -0.809, R -0.01, S -0.484, T -0.266, V 0.072, W -0.322, Y -0.06
E18: A -0.014, C -0.132, D -0.15, F -0.263, G -0.459, H -0.094
